Kd data for four substances are collected here from article PMC10539794, “Structural polymorphism and substrate promiscuity of a ribosome-associated molecular chaperone” (Magnetic resonance, 2021).

Where no end group is shown, it is not given here.

Assay [1] addresses FITC-labeled IcdH1 peptide (ICDH 55-70). As to the kind of experiment: fluorescence polarisation; FITC-labeled peptide at 1 µM, TF serially diluted (0.1-1000 µM); 20 mM Tris pH 7.4, 100 mM NaCl; one-site binding model; apparent constants. A general note: In fluorescence polarisation assays a small probe gives low polarisation when free and higher when bound to something large.
The target of assay [2] is FITC-labeled IcdH2 peptide (ICDH 125-137). The description is as above.
Assay [3] addresses FITC-labeled IcdH3 peptide (ICDH 177-194). The assay is described as above.
Assay [4] concerns the target T1, E. coli TF (trigger factor), full-length (Escherichia coli, UniProt P0A850).
T1 construct: His6 (N); made in house
T1 sequence (P0A850 1-432): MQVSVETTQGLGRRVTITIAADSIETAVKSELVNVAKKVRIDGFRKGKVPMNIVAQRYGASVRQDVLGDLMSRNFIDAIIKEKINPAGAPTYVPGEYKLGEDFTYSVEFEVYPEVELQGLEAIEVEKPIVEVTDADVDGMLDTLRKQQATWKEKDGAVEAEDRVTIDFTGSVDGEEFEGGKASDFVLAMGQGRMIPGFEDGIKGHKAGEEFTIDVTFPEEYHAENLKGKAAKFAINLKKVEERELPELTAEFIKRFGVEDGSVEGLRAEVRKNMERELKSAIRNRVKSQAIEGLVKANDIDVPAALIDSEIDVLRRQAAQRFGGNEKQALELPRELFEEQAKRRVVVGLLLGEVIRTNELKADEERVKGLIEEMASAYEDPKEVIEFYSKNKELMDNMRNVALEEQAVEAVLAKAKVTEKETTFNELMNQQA
In words: Fluorescence polarization analysis of TF binding to FITC-labeled peptides. The settings on record: N-terminally FITC-labeled peptide 1 µM, full-length TF 0.1-1000 µM, 20 mM Tris pH 7.4, 100 mM NaCl, ex 485 nm / em 535 nm, one-site binding model, errors from three technical replicates.
Method: A fraction of all these peptides were subsequently labeled with FITC at the N-terminus for fluorescence polarization (FP) measurements. […] For FP analysis, FITC-labeled peptides were dissolved in DMSO to yield a stock solution of 4 M. They were subsequently diluted by 20 mM Tris (pH 7.4) and 100 mM NaCl to yield a molar concentration of 100 µM . 200 µL of TF variants was transferred into a 96-well plate followed by serial dilution by the same buffer in a 1:1 dilution ratio. The final protein concentrations were between 0.1 and 1000 µM . After serial dilution, 50 µL of protein solutions of various protein concentrations was transferred to new wells by an eight-channel pipette and was mixed with FITC-labeled peptide solution to yield a peptide concentration of 1 µM . FP measurements of these samples were carried out using a plate reader (Paradigm, Molecular Device, USA) with an excitation wavelength of 485 nm and an emission wavelength of 535 nm. The integration time was set to 250 ms.

As to “E. coli trigger factor (TF), full length (from UniProt P0A850 1-432) (natural protein)”, the Kd in assay [1] stood at 28.2 µM; in assay [2], 8.6 µM; in assay [3], 132 µM.
As for KAYKGERKISWMEIYT [IcdH1], the Kd in assay [4] amounted to 28.2 ± 1 µM.
Take KFLREEMGVKKIRFPEHC [IcdH3]: the Kd in assay [4] came to 132 ± 9 µM.
In turn, YICLRPVRYYQGT [IcdH2] came in with a Kd in assay [4] of 8.6 ± 0.3 µM.
